Results: US20220267427A1 (SYSMEX, published 2022)
Values belong to the binder of their own block, whether it stands above or below them. Where no end group is shown, it is not given here.

What was measured:
rfCK18 (127-430) = biological target: T1, rfCK18 (127-430) (human, UniProt P05783 127-430); assay: solid phase ELISA; antigen (0.3 ug/mL) captured by anti-GST or penta HIS antibody on plate, antibody 5 to 10 ng/mL
T1 construct: Bought (Proteintech Inc.); captured through an anti-GST or penta HIS antibody, the tag is not described
T1 sequence: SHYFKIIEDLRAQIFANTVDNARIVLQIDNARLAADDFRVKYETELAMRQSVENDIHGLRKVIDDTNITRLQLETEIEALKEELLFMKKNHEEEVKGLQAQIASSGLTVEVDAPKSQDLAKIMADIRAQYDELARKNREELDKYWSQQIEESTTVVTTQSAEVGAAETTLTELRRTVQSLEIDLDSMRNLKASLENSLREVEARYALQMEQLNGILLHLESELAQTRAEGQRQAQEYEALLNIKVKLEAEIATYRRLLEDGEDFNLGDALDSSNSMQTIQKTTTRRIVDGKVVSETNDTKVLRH
Protocol: (1) An ANTI GST antibody or a penta HIS antibody was added to an ELISA plat at 2.5 μg/mL and 50 μL/well, and the plate was allowed to stand at 4° C. overnight to immobilize the antibody. Thereafter, the plate was washed three times with PBST, and Buffer I′ (10 mM NaH₂PO₄.2H₂O, 149.7 mM NaCl, 2.5 mM EDTA 2Na, 0.10% BSA, pH 7.0) was added thereto at 200 μL/well to prepare a plate stored at 4° C. overnight. […] (3) The plate was washed three times with PBST, and 50 μL each of each antigen diluent was added thereto, followed by shaking for 45 minutes. […] (6) The plate was washed three times with PBST, and 15000-fold diluted Peroxidase-conjugated Affinipure F(ab)′2 Fragment Goat Anti-Mouse IgG (H+L) (Jackson) was added thereto at 50 μL/well, followed by shaking for 45 minutes. (7) The plate was washed three times with PBST, TMB Mix (1-step Ultra TMB-ELISA (Thermo Scientific):3% H₂O₂: Phosphate-Citrate buffer (Sigma)=15:0.15:14.85) was added thereto at 100 μL/well, and the mixture was reacted at room temperature for 10 minutes. Thereafter, 1 M H₂SO₄ was added thereto at 100 μL/well to stop the reaction. (8) Absorbance of the reaction solution at 450 nm was measured with a plate reader.

[1] = biological target: T2, fCK18 in apoptosis-induced HepG2 cell culture supernatant (human, UniProt P05783 239-397); assay: HISCL sandwich immunoassay; K18-624 magnetic microbeads capture, K18-328Fab-ALP detector; fCK18 0.28 ng/mL
T2 construct: Natural CK18 fragment from the culture supernatant of apoptosis-induced HepG2 cells (band around 18 KDa); also called fCK18 in apoptosis-inducing cells
T2 sequence: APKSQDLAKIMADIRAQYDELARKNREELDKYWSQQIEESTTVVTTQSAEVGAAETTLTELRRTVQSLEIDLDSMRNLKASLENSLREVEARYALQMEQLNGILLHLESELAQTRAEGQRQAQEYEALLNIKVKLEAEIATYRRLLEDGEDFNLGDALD

[2] = biological target: T2, fCK18 in apoptosis-induced HepG2 cell …; assay: plate ELISA with K18-624 magnetic microbeads, K18-328Fab-ALP detector; fCK18 0.09 ng/mL
Protocol: (§1) Measurement samples of 3-fold dilution series (3-fold to 6561-fold dilution) were prepared from the apoptosis-induced HepG2 cell culture supernatant with a diluent (TBS, pH 7.5, 2% BSA), and fCK18 was measured. […] Based on the prepared calibration curve, fCK18 in the measurement sample was measured.
(§2) This solution was added to an ELISA plate at 25 μL/well, then each measurement sample was added at 25 μL/well, and the plate was incubated (1500 rpm, RT, 20 min). […] (3) After washing the plate, the HISCL (registered trademark) R4 reagent was added thereto at 50 μL/well, and then the mixture was stirred (1500 rpm, RT, 1 min). Thereafter, the HISCL (registered trademark) R5 reagent was added at 100 μL/well, and then the mixture was stirred (1000 rpm, RT, 10 sec). (4) Luminescence intensity was measured with a plate reader.

[3] = biological target: T2, fCK18 in apoptosis-induced HepG2 cell …; assay: HISCL sandwich immunoassay; K18-624 magnetic microbeads capture, K18-328Fab-ALP detector; fCK18 6.79 ng/mL
Protocol: as §1, §2

[4] = biological target: T2, fCK18 in apoptosis-induced HepG2 cell …; assay: plate ELISA with K18-624 magnetic microbeads, K18-328Fab-ALP detector; fCK18 20.27 ng/mL
Protocol: as §1, §2

Peptide 2 = biological target: T3, Peptide 2 (human); assay: solid phase ELISA, BSA-conjugated peptide on plate
T3 construct: Synthetic peptide; lacks the C-terminal aspartic acid of Peptide 1
T3 peptide: {BSA}-RRLLEDGEDFNLGDAL
Protocol: (1) BSA was added to the N-terminus of Peptide 1 and Peptide 2. (2) Each peptide was added to an ELISA plate at 5 μg/mL and 100 μL/well, and the plate was allowed to stand at 4° C. overnight to immobilize the peptide. Thereafter, the plate was washed three times with PBST, and Buffer I′ (10 mM NaH₂PO₄.2H₂O, 149.7 mM NaCl, 2.5 mM EDTA 2Na, 0.10% BSA, pH 7.0) was added thereto at 200 μL/well to prepare a plate stored at 4° C. overnight. […] (5) The plate was washed three times with PBST, and 15000-fold diluted Peroxidase-conjugated Affinipure F(ab)′2 Fragment Goat Anti-Mouse IgG (H+L) (Jackson) was added thereto at 100 μL/well, followed by shaking at room temperature for 1 hour. (6) The plate was washed three times with PBST, TMB Mix (1-step Ultra TMB-ELISA (Thermo Scientific):3% H₂O₂: Phosphate-Citrate buffer (Sigma)=15:0.15:14.85) was added thereto at 100 μL/well, and the mixture was reacted at room temperature for 10 minutes. Thereafter, 1 M H₂SO₄ was added thereto at 100 μL/well to stop the reaction. (7) Absorbance of the reaction solution at 450 nm was measured with a plate reader.

[5] = biological target: T2, fCK18 in apoptosis-induced HepG2 cell …; assay: plate ELISA with K18-624 magnetic microbeads, K18-328Fab-ALP detector; fCK18 0.28 ng/mL
Protocol: as §1, §2

[6] = biological target: T2, fCK18 in apoptosis-induced HepG2 cell …; assay: HISCL sandwich immunoassay; K18-624 magnetic microbeads capture, K18-328Fab-ALP detector; fCK18 0.74 ng/mL

- Abs450 (rfCK18 (127-430)): 0.89
B1: K18-328 antibody (antibody, V domains shown)
VH: QVHLQQSAAELARPGASVKMSCKASGYTFTNYTIHWIKQRPGQGLEWIGYINPSSGYTDYNQNFKDKTTLTADKSSTTVYMQLSSLTSEDSAVYYCARQIPFAYWGQGTLVTVSA
VL: not shown
notes: Mouse monoclonal antibody from a hybridoma (immunogen full length rCK18)

- S/N ratio [1]: 3.8
- S/N ratio [2]: 2.7
- S/N ratio [3]: 75.7
- S/N ratio [4]: 525
- binding result (Peptide 2): no binding (tested: 5 to 10 ng/mL)
- S/N ratio [5]: 5.9
- S/N ratio [6]: 9.4
B2: K18-624 antibody (antibody, V domains shown)
VH: DVQLVESGGGLVQPGGSRKLSCAASGFTFSSFGMHWVRQAPEKGLEWVAYISSGSTTIYYADTVKGRFTISRDNPKNTLFLQMTSLRSEDTAMYYCARRGMITTGAWFAYWGQGTLVTVSA
VL: DILLTQSPAILSVSPGERVSFSCRASQRIGTSIHWYQQRTNGSPRLLIKYASESISGIPSRFSGSGSGTDFTLSINSVESEDIADYYCQQSYIWPFTFGSGTKLEIK
notes: Mouse monoclonal antibody from a hybridoma (Balb/C mouse immunised with Peptide 1-KLH)
